The values that follow come from paper PMC5640846.

Where “and” joins values, the source holds several entries; their conditions need not be identical. Equal entries are not always repeated.

Assay [1] concerns the target HTNV Gn ectodomain (Hantaan virus glycoprotein Gn, residues 18 to 371) (Hantaan virus (HTNV)). Put plainly: AUC.
Assay [2] shares this target. As to the kind of experiment: crystal structure.

Take “HTNV Gn ectodomain (Hantaan virus glycoprotein Gn, residues 18 to 371) (domain or fragment)”: the stoichiometry N (usually the number of molecules, sites or subunits per partner or assembly) is 2 and 3 and 4 in assay [1]; 4 in assay [2].
